Reference: paper PMC3423576 (Journal of molecular biology, 2012)

Biological target: the molecule itself
Assay: crystal structure

B1: CusB periplasmic membrane fusion protein (natural protein, E. coli, UniProt P77239 29-407, looked up)
chain: EPPAEKTSTAERKILFWYDPMYPNTRFDKPGKSPFMDMDLVPKYADEESSASGVRIDPTQTQNLGVKTATVTRGPLTFAQSFPANVSYNEYQYAIVQARAAGFIDKVYPLTVGDKVQKGTPLLDLTIPDWVEAQSEYLLLRETGGTATQTEGILERLRLAGMPEADIRRLIATQKIQTRFTLKAPIDGVITAFDLRAGMNIAKDNVVAKIQGMDPVWVTAAIPESIAWLVKDASQFTLTVPARPDKTLTIRKWTLLPGVDAATRTLQLRLEVDNADEALKPGMNAWLQLNTASEPMLLIPSQALIDTGSEQRVITVDADGRFVPKRVAVFQASQGVTALRSGLAEGEKVVSSGLFLIDSEANISGALERMRSESATHAH
  stoichiometry N: 6
